Laboratory results reported in the nanobody polyreactivity screen of Harvey et al. (2022).

Assay: yeast display, Sf9 membrane polyspecificity reagent, FACS + sequencing; frameworks hold sequencing errors
Outline: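 Nanobodies came from a synthetic yeast display library in Saccharomyces cerevisiae BJ5465, induced with galactose for 36–48 hours and stained for 1 hour at 4 °C with 10% biotinylated, detergent-solubilized Sf9 membrane reagent. Cells were enriched on streptavidin microbeads and then FACS-sorted, with low and high (top ~1%) gates set on anti-HA fluorescence for expression and streptavidin fluorescence for reagent binding. Each polyreactivity label reflects the gate a clone came from. Genes were amplified by colony PCR, sequenced by MiSeq 2 × 250 and filtered by CDR length.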

Sequence | polyreactivity (PSR sort gate)
QVQLVESGGGLVQAGGSLRLSCAASGSTLGYNVMAWYRQAPGKERELVAAISGEGSTNYADSVKGRFTISRDNAKNTVYLQMNSLKPEDTAVYYCAADSRDDYEYWRQGTQVTVSS | low polyreactivity
QVQLVESGGGLVQAGGSLRLSCAASGSTFWYYAMGWYRQAPGKEREFVAAITTSAGRTYYADSVKGRFTISRDNAKNSVYLQMNSLKPEDTAVYYCAAEPRQYWEYNYWGQGTQVTVSS | high polyreactivity
QVQLVDSGGGLVQAGGILSLSCASSGRTFYRYAMGWYRQAPGKERELVAAISATGCSTYYADSVKGRFTISRDNEKNTGYFQMNIMKPEDSAVDYCARGGTTLYWGQGTQLTVSS | high polyreactivity
QVQLVESGGGLVQEGGSLRLRCAASGSIFYRYAMGWYRQAPGKERELVAAISSTGSTYYADSVKGRFTISRDNAKNTVYLQMNSLKPEDTAVYYCAARQGYRSYRRYDYWGQGTQVTVSS | high polyreactivity
QVQHVESGGGLVQAGGSLRLSCAASGSIFGTYAMGWYRQAPGKERELVAAIRWSSGSTYYADSVKGRFTISRDNAKYTVYLLMNSLKPEDTAVYYCNAEYVYYWLGATFGYWGQGTQVTVSS | high polyreactivity
QVQLVESGGGLVQAGGSLRLSCAASGRTLTAYAMGWYRQAPGKERELVAAISVTGDNTYYADSVKGRFTISRDNAKNTVYLQMNSLKPEDTAVYYCDARKQYKYGYWGQGTQVTVSS | low polyreactivity
QVQLVESGGGLVQAGGSLRLSCAASGRTSWYYAMGWYRQAPGKERELVAAITASGGSTYADSVKWRFTISRDNAKNTVYLQMNSLKPEDTAVYYCAAERPYSRVGYYYWGQGTQVTVSS | high polyreactivity
QVQLVESGGGLVQAGGSLRLSCAASGSTFVSNAMGWYSQAPGKERELVAAISSSDDSTYYADSVKGRFTLSRDKAKNTVYLQMISLKPEDTAVYYCAAESDSDQHDGDYWGQGTQVTVSS | low polyreactivity
QVQLVESGGGLVQAGGSLRLSCAASGSILVSYAMGWYRQAPGKERELVAAITRSGVRTYYADSVKGRFTISRDNAKNSVYLQMNSLKPEDTAVYYCAADTYRSSSPYGYWGQGTQVTVSS | high polyreactivity
QVQLVESGGGLVQAGGSLRLTCAASGRTFIVYAMGWYRQAPGKERELVAGITRGSTNYADSVKGRFTISRDNAKNTVYLQMNSLKPEDTAVYYCATEVYIWPWGTVYAFEYDYWGQGTQVTVSS | high polyreactivity
QVQLVESGGGLVQAGGSLRLSCAASGITFSVYTMGWYRPAPGKERELVAAIDSDGITNYADSVKGRFTISRDNAKNNVYLQMNSLKPEDTAVYYCAKQSGRADGVSGFDYWGQGTQVTVSS | low polyreactivity
QVQLVESGGGLVQAGGSLRLSCAASGIIFTFYAMGWYRQAPGKERELVAAISYSSGSTYADSVKGRFTISRDNAKNTVYLQMNSLKPDDTAVYYCAVDLFPGHSYTYDYWGQGTQVTVSS | low polyreactivity
QVQLVESGGGLVQAGGSLRLSCAASGSIFPYYAMGWYRQAPGKERELVAAITGAGSTNYADSVKGRFTISRDNAKNTVYLQMNSLKPEDTAVYYCAADFGSPDKWRDWYDYWGQGTQVTVSS | low polyreactivity
QVQLVESGGGLVQAGGSLRLSCAASGSIFGVYDMGWYRQAPGKERELVAVINSNGGSTYYADSVKGRFTISRDNAKNTVYLQMNSLNPEDTAVYYCAADYQSYVYIGYGYWGQGTQVTVSS | low polyreactivity
QVQLVESWGGLVQAGGSLRLSCAASGIIFVSNAMGWYRQATGKERELVATINWSDDSTYYADSVKGRFTISRDNAKNTVYLQMNSLKPEDTAVYYCAADDYAVDYSYYYNDEYDYWGQGTQVTVSS | low polyreactivity
QVQLVESGGGLVQAGGSLRLSCAASGSIFSKYAMGWYRQAPGKERELVAAIDWSGGSTYYADSVKGRFTISRDNAKNTVYLQMNSLKPEDTAVYYCNAEYVVADYGYYTIEFDYWGQGTQVTVSS | low polyreactivity
QVQLVESGGGLVQAGGSLRLSCAASGNTFVYNAMGWYRQAPGKERELVAGLTKTGGRTYYADSVKGRVTISRDNAKNTVYLQMNSLKPEETAVYYCAARPWNDGYYVGRFHMDYWGQGTQVTVSS | low polyreactivity
QVHLVESGGGLVQAGGSLRLSCAASGFTIAFNAMGSYRQAPGKERELVASITGGGSTNYADSVKGRFTISRDNAKNTVYLQMNSLKPEDTAVYYCAARYFWAWERDLFLEFDYWGQGTQVTVSS | low polyreactivity
QVQLVESGGGLVQAGGSLRLSCAASGFTFNRYAMGWYRQAPGKERELVAAISWSGTSTYYADSVKGRFTISRDNAKNTVYLQMNSLKQEDTAVYYCAARVKGQWNTYDYWGQGTQVTVTS | high polyreactivity
QVQLVESGGGLVQAGGILRLSCDASGITFSTYAMGWYRQAPGKERELVAAITRSGGTYYADSVKGSFTISRDNAKNTVYLQMNSLKPEDTAVYYCAASYTVFGVRRYGYWGQGTQVTVSS | high polyreactivity
QVQLVEKGGGLVQAGGSLRLSCAASGRTFQYYAMGWYRQAPGNERELVAAINQGGGRTYYADSVKGRFTISRDNAKNTVYLQMNSLKPEDTAVYYCAADGLSKFDYWGQGTQVTVSS | low polyreactivity
QVQLVESGGGLVQAGGSLRLSCAASGRTFGGNAMGWYRQAPGKERELVAAISLSGGTTYYADSVKGRFTISRDNAKNTVYLQMNSLKPEDTAVYYCAADTAGYYDEDKDGDYWGQGTQVTVSS | low polyreactivity

Sequence | polyreactivity (PSR sort gate)
QVQLVESGGGLVQAGGSLRLSCAASGSIFPTNAMGWYRQAPGKERELVAAISSRDGSTYYADSVKGRFTISRDNAKNTVYLQMNSLKPEDTAVYYCNTDHDPIYFYITRHDSWGQGTQVTVSS | low polyreactivity
QVQLVESGGGLVQAGGSLRLSCAASGITFGGYAMGWYRQAPGKERELVASIRSGSTTNYADSVKGRFTISRDNAKNTVYLQMNSLKPEDTAVYYCAARNFRNRYGYWGQGTQVTVSS | high polyreactivity
QVQLVESGGGLVQAGGSLRLSCAASGRTFPIYAMGWYRQAPGKERELVAAITRGGRTNYADSVKGRFTISRDNAKNTVYLQMNSLKTEDTAVYYCAARSYGTYLYAEYDYWGQGTQVTVSS | high polyreactivity
QVQLVESGGGLVQAGGSLRLSCAASGRTIRSYAMGWYRQAPGKERELVAAITGSGGRTYYADSVKGRFTISRDNAKNTVYLQLNSLKPEDTAVYYCAARLRGSYDYWGQGTQVTVSS | high polyreactivity
QVQLVESGGGLVQAGGSLRLSCAASGRSFESYAMGWYRQAPGKERELVAAITWSGGDTYYADSVKGRFTISRDNAKNTVYLQMNSLKPEDTAVYYCAKEQGLYSVSPYDYWGQGTQVTVSS | low polyreactivity
QVQLVESGGGLVQAGGSLRLSCAASGLTFRNYAMGWYRQAPGKEREVVADISWSGGSTYYADSVKGRFTISRDNAKITVYLQMNSLKPEDTAVYYCAARFHYPGGPRYYYWGQGTQVTVSS | high polyreactivity
QVQLVESGGGLVQAGGSLRLSCAASGSTFIYYTMGWYRQAPGKERELVAAINGGGGSTYYADSVKGRFTISRDNAKNTVYLQMTSLKPEDTAVYYCATDPWHRAWGYGWGYNYWGQGTQVTVSS | low polyreactivity
QVQLVESGGGLVQAGGSLRLSCAASGSTFYTYAMGWSRPAPGKERELVAAINWIGDSTYYADSVKGRFTISRDNAKNTVYLQMNSLKPEDTAVYYCAADFTLGSRTEGLHMDYWGQGTQVTVSS | high polyreactivity
QVQLVESGGGLVQAGGSLRLSCAASGSTFEYNVMGWYRQAPGKERELVAAITSGASTNYADSVKGRFTISRDNAKNSVYLQMNSLKPEDTAVYYCAAGESGSFFIYYYWGQGTQVTVSS | low polyreactivity
QVQLVESGGGLVQAGGSLRLSCAASVSIFGYNTMGRYRQAPGKERELVARIRASGGSTYYADSVKGRFTISRDNAKNTVYLQMNSLKPEDTAVYYCAKYLRGSWVRQFGSTYDYWGQGTQVTVSS | high polyreactivity
QVQLVESGGGLVQAGGSLRLSCAASGSTFYYYAMGWYRQAPGKERELVAAITYRGGSTYYADSVKGLFTISRDNAKNTVYLQMNSLKPEDTAVYYCSKVGYKTSSIRYGYWGQGTQVTVSS | high polyreactivity
QVQLVESGGGLVQAGGSLRLSCAASGRIFWYYDMGWYRPAPGKERELVAAISQRGGSTYYADSVKGRFTISRDNAKNTVYLQMNSLKPEDTAVYYCAAYSRYLGPTHHIKYDYWGQGTQVTVSS | high polyreactivity
QVQLVESGGGLVQAGGSLRLSCAASGSIFDGYAMGWYRQAPGKERELVASISSGGSTNYADSVKGRFTISRDNAKNTVYLQMNSLKPEDTAVYYCAAEWVWYKWEFEYWGQGTQVTVSS | high polyreactivity
QVQHVESGGGLVQAGGSLRLSCAASGRIFSGYAMGWYRQAPGKERELVAAINRSGGSTYYADSVKGRFTISRDNAKNTVYLQMNSLKPDDTAVYYCAADKSDVYGYFRQSESYGYWGQGTQVTVSS | low polyreactivity
QVQLVESGGGLVQAGGSLRLSCAASGIIFSPYAMGWYRQAPGKERELVAAISYSGGSTYYADSVKGRFTITRDNAKNTVYLQMNSLKPEDTAVYYCAVVYSYYLAVLGYWDYDYWGQGTQVTVSS | low polyreactivity
QVQLHESGGGLVQAGGGLRLSCASSGSISSTGFMGWYRQAPGKEREPVAAIAPGTTTYYADSVKGRFTIRRDNAKNTVYLQMNSLRPEDTAVYYCAVFTDNRVAFLYWGQGTQVTVSS | low polyreactivity
QVQLEESGGGLVQAGGSLRLSCAASYAMGWYRQAPGKERELVATITRTDRTNYADSVKGRFTISRDNAKNTVYLQMNSLKPEDTAVYYCNKVDWSAPGDSPKYGYWGQGTQVTVSS | low polyreactivity
QVQLVESGGGLVQEGGSLRLICAASGRILRDNAMGWYRQAPGKERELVAAISVSTVSTYYADSVKGLFTISRDNANNTVYFHMNSLKPEDTAVYYCNADATDSYPEKDEHDSWGQGTQVTVSS | low polyreactivity
QVQLVESGGGLVQAGGSLRLSCAASGLTFDWYAMGWYRQAPGKERELVAAITSVGSTYYADSVKGRFTISRDNAKNTVYLQMNSLKPEDTAVYYCAVEGVMWSFWPYEYWGQGTQVTVSS | high polyreactivity
QVQLVESGGGLVQAGGSLPLSCAASGRIFAFNVMGWYRQAPGKERELVAAISTRDGSTYYADSVKGRFTISRDNAKNTVYLQMNSLTPEDTAVYYCNAVVRYYDWGYWDYDYWGQGTQVTVSS | low polyreactivity
QVQLVESGGGLVQAGGSLRLSCAASGFIFGRYTMGWYRQAPGKERELVAAITYSGNTYYADSVKGRFTISRDNAKNTVYLQMNSLKPEDTAVYYCNAYGANFRAFRNAYKYWGQGTQVTVSS | high polyreactivity
